Experimental data published in publication PMC4622529.
Values joined by “and” are separate entries in the source; they are usually repeats but may differ in a detail not shown here. Equal values may be shown once. Read-outs that look alike come from different tables or passages of the source.

Legend:
Assay in all cases: SPR
human IgG4 (human) = target: human IgG4 (human)
human IgG3 (human) = target: human IgG3 (human)
[1] = target: trastuzumab hIgG1 N434Y (homodimer) (human)
[2] = target: trastuzumab hIgG1 AAA:WT E:R heterodimer (human)
[3] = target: trastuzumab hIgG1 N434H (homodimer) (human)
[4] = target: trastuzumab hIgG1 WT:WT E:R heterodimer (human)
[5] = target: trastuzumab hIgG1 AAA:N434H E:R heterodimer (human)
[6] = target: trastuzumab hIgG1 I253A:WT E:R heterodimer (human)
[7] = target: trastuzumab hIgG1 WT R arm (parental) (human)
[8] = target: trastuzumab hIgG1 AAA:N434Y E:R heterodimer (human)
[9] = target: trastuzumab hIgG1 N434Y R arm (parental) (human)
mouse IgG2a (mouse) = target: mouse IgG2a (mouse)
[10] = target: trastuzumab hIgG1 wild type (homodimer) (human)
[11] = target: trastuzumab hIgG1 WT E arm (parental) (human)
[12] = target: trastuzumab hIgG1 N434Y (homodimer) (human); remark: listed apart in the source
[13] = target: mouse FcRn (FcRn/β2m heterodimer, soluble extracellular domain) (mouse) (UniProt Q61559)
[14] = target: rat FcRn (FcRn/β2m heterodimer, soluble extracellular domain) (rat) (UniProt P13599)
[15] = target: mouse FcRn (FcRn/β2m heterodimer, soluble extracellular domain) (mouse) (UniProt Q61559); remark: listed apart in the source
[16] = target: rat FcRn (FcRn/β2m heterodimer, soluble extracellular domain) (rat) (UniProt P13599); remark: listed apart in the source
[17] = target: mouse FcRn (FcRn/β2m heterodimer, soluble extracellular domain) (mouse) (UniProt Q61559); remark: listed apart in the source
[18] = target: mouse FcRn (FcRn/β2m heterodimer, soluble extracellular domain) (mouse) (UniProt Q61559); remark: listed apart in the source
[19] = target: rat FcRn (FcRn/β2m heterodimer, soluble extracellular domain) (rat) (UniProt P13599); remark: listed apart in the source
[20] = target: rhesus monkey IgG1 (rhesus monkey)
[21] = target: rhesus monkey IgG2 (rhesus monkey)
[22] = target: rat IgG2a (panel of unrelated mAbs of subtype rIgG2a) (rat)
mouse IgG2b (mouse) = target: mouse IgG2b (mouse)
rat IgG2b (rat) = target: rat IgG2b (rat)
mouse IgG1 (mouse) = target: mouse IgG1 (mouse)
[23] = target: human IgG1 (category of several hIgG1 molecules) (human)
[24] = target: cynomolgus monkey IgG2 (cynomolgus monkey)
mouse IgG3 (mouse) = target: mouse IgG3 (mouse)
[25] = target: human IgG2 (category of several hIgG2 molecules) (human)
rat IgG2c (rat) = target: rat IgG2c (rat)
rat IgG1 (rat) = target: rat IgG1 (rat)
[26] = target: cynomolgus monkey IgG1 (cynomolgus monkey)
[27] = target: rat IgG2a (panel of unrelated mAbs of subtype rIgG2a) (rat); remark: listed apart in the source

With “cynomolgus monkey FcRn (FcRn/β2m heterodimer, soluble extracellular domain) (from UniProt Q8SPV9;Q8SPW0) (receptor)” the Kd (human IgG4 (human)) was 258 nM and 266 nM and 450 nM and the Kd (human IgG3 (human)) was 188 nM and 213 nM and 387 nM.

With “human FcRn (FcRn/β2m heterodimer, soluble extracellular domain) (from UniProt P55899;P61769) (receptor)” the Kd (human IgG4 (human)) was 717 nM and 973 nM and the Kd (human IgG3 (human)) was 585 nM and 898 nM.

“mouse FcRn (FcRn/β2m heterodimer, soluble extracellular domain) (from UniProt Q61559;P01887) (receptor)” gave a Kd [1] of 0.47 nM, a stoichiometry N [1] of 2 FcRn per IgG and a Kd [2] of 58 nM. For the same molecule, the stoichiometry N [2] was 1 FcRn per IgG, the stoichiometry N [3] was 2 FcRn per IgG and the Kd [4] was 58 nM. For the same molecule, the stoichiometry N [5] was 1 FcRn per IgG, the Kd [6] was 58 nM and the Kd [7] was 58 nM. For the same molecule, the Kd [8] was 0.47 nM, the stoichiometry N [8] was 1 FcRn per IgG and the Kd (human IgG4 (human)) was 116 nM and 197 nM and 183 nM. For the same molecule, the Kd (human IgG3 (human)) was 230 nM and 353 nM and 328 nM, the Kd [9] was 0.47 nM and the Kd (mouse IgG2a (mouse)) was 490 nM and 931 nM. For the same molecule, the Kd [10] was 58 nM, the stoichiometry N [10] was 2 FcRn per IgG and the Kd [11] was 58 nM. It also gave a Kd [12] of 44.1 nM.

Work on “rat FcRn (FcRn/β2m heterodimer, soluble extracellular domain) (from UniProt P13599;P07151) (receptor)” yielded a Kd [1] of 4.5 nM, a Kd [3] of 9.9 nM and a Kd [10] of 84 nM. For the same molecule, the Kd [12] was 455 nM.

“trastuzumab hIgG1 AAA:N434H E:R heterodimer (antibody)” was tested, and the Kd [13] was 3.6 nM, the Kd [14] was 8 nM and the Kd [15] was 3.8 nM. It also gave a Kd [16] of 4.9 nM.

“trastuzumab hIgG1 AAA:N434Y E:R heterodimer (antibody)” was tested, and the Kd [17] was 50 nM and 52 nM, the Kd [13] was 0.35 nM and the Kd [14] was 3.5 nM. The Kd [18] was 66 nM, the Kd [15] was 0.28 nM and the Kd [16] was 2.7 nM.

With “trastuzumab hIgG1 AAA:WT E:R heterodimer (antibody)” the Kd [13] was 49 nM, the Kd [14] was 67 nM and the Kd [15] was 54 nM. The Kd [16] was 46 nM.

“trastuzumab hIgG1 N434H (homodimer) (antibody)” gave a Kd [15] of 3.7 nM and a Kd [16] of 5.4 nM.

For “trastuzumab hIgG1 N434Y (homodimer) (antibody)”, the Kd [17] was 36 nM, the Kd [19] was 460 nM and the Kd [15] was 0.292 nM. The Kd [16] was 3.3 nM.

For “trastuzumab hIgG1 wild type (homodimer) (antibody)”, the Kd [15] was 48 nM and the Kd [16] was 49 nM.

B1: rat FcRn (FcRn/β2m heterodimer, soluble extracellular domain) (receptor)
chain 1: AEPRLPLMYHLAAVSDLSTGLPSFWATGWLGAQQYLTYNNLRQEADPCGAWIWENQVSWYWEKETTDLKSKEQLFLEAIRTLENQINGTFTLQGLLGCELAPDNSSLPTAVFALNGEEFMRFNPRTGNWSGEWPETDIVGNLWMKQPEAARKESEFLLTSCPERLLGHLERGRQNLEWKEPPSMRLKARPGNSGSSVLTCAAFSFYPPELKFRFLRNGLASGSGNCSTGPNGDGSFHAWSLLEVKRGDEHHYQCQVEHEGLAQPLTVDL
chain 2: IQKTPQIQVYSRHPPENGKPNFLNCYVSQFHPPQIEIELLKNGKKIPNIEMSDLSFSKDWSFYILAHTEFTPTETDVYACRVKHVTLKEPKTVTWDRDM
With B1 the Kd [20] was 88 nM and 119 nM, the Kd [21] was 41 nM and 51 nM and the Kd [22] was 45 nM and 76 nM. The Kd (mouse IgG2b (mouse)) was 332 nM and 368 nM, the Kd (rat IgG2b (rat)) was 186 nM and 248 nM and the Kd (mouse IgG1 (mouse)) was 501 nM and 567 nM. The Kd [23] was 68 nM and 135 nM, the Kd [24] was 38 nM and 51 nM and the Kd (mouse IgG3 (mouse)) was 183 nM. The Kd (human IgG4 (human)) was 123 nM and 149 nM and 145 nM, the Kd [25] was 53 nM and 93 nM and the Kd (human IgG3 (human)) was 313 nM and 357 nM and 366 nM. The Kd (rat IgG2c (rat)) was 452 nM and 617 nM, the Kd (mouse IgG2a (mouse)) was 97 nM and 150 nM and the Kd (rat IgG1 (rat)) was 285 nM and 329 nM. For the same molecule, the Kd [26] was 88 nM and 123 nM, the Kd [27] was 44 nM and 69 nM and 55 nM and the koff [27] was 0.0119 s⁻¹. For the same molecule, the kon [27] was 220000 M⁻¹ s⁻¹.
